Experimental data from PMC3923860.

Test system: H1-CΔ97 (histone H1o lacking C-terminal domain) (mouse)
Assay: EMSA
Details: no competitor DNA; EMSA: 50 mM NaCl, 25 mM Tris-HCl pH 7.5, 1 mM EDTA, 1 mM DTT, 100 ug/ml acetylated BSA, 3% glycerol; 30 min on ice; gels 0.5x TBE, 4 C

hemicatenated DNA loops (hcDNA) gave a Kd of 35 nM.
